Data from patent US20210340215A1 (published 2021).
Each block holds one binder with its values, some of them ahead of it.

Legend:
[1] = biological target: T1, GATA3 neoORF (frameshift; CSNH) peptide on HLA-B*08:01 (human); assay: cytokine release
T1 peptide: ESKIMFATL

[2] = biological target: T2, GATA3 neoORF (frameshift; CSNH) peptide on HLA-A*02:01 (human); assay: multimer staining
T2 peptide: MLTGPPARV
Text: (§1) Neoantigen specific T cells were detected by combining HLA-multimer staining with 2 different fluorochrome conjugated recombinant HLA (HLA-A02.01, HLA-A03.01, or HLA-A11.01) multimer with neoantigen peptides. Anti-CD8, anti-CD4, anti-CD19, anti-CD16, anti-CD14, anti-CD56 and antibodies and Live/Dead IR dye (Invitrogen) were used for cell surface staining. CD8⁺ T cells were identified as CD8⁺CD4⁻CD19⁻CD16⁻CD14⁻CD56⁻IR⁻ (FIGS. 1, 2, 4A, 5, 6A, 8F, 8G, 9, 10A, 10B, 11, 13, 15, 16A and 16B). For sorting, up to 5×10⁶ cells were incubated with 1-20 μg multimer in 100 μL PBS+0.5% human serum. Antibodies and Live/Dead IR dye were used to stain the cells for an additional 30 min. After staining, cells were washed twice and diluted in PBS+0.5% human serum. Live/Dead IR dye-negative cells were gated and CD8⁺/multimer⁺ T cells were sorted on a FACSAria cell sorter (BD Biosciences).

[3] = biological target: T3, KRAS G12V peptide on HLA-A*11:01 (human); assay: multimer staining
T3 peptide: VVGAVGVGK
Text: as §1

[4] = biological target: T4, BTK C481S peptide on HLA-A*02:01 (human); assay: multimer staining
T4 peptide: SLLNYLREM
Text: as §1

[5] = biological target: T5, TMPRSS2:ERG gene fusion peptide on HLA-A*02:01 (human); assay: multimer staining
T5 peptide: ALNSEALSV
Text: as §1

binding result [2]: recognises
B2: GATA3 TCR-1 (TCR, V domains shown)
Valpha: SQKIEQNSEALNIQEGKTATLTCNYTNYSPAYLQWYRQDPGRGPVFLLLIRENEKEKRKERLKVTFDTTLKQSLFHITASQPADSATYLCALDIYGNNRLAFGKGNQVVVIP
Vbeta: DVKVTQSSRYLVKRTGEKVFLECVQDMDHENMFWYRQDPGLGLRLIYFSYDVKMKEKGDIPEGYSVSREKKERFSLILESASTNQTSMYLCASSLDFVLAGSYSYNEQFFGPGTRLTVL

binding result [3]: recognises
B3: RAS TCR-26 (TCR, V domains shown)
Valpha: DQQVKQNSPSLSVQEGRISILNCDYTNSMFDYFLWYKKYPAEGPTFLISISSIKDKNEDGRFTVFLNKSAKHLSLHIVPSQPGDSAVYFCAANAGGTSYGKLTFGQGTILTVHP
Vbeta: EPEVTQTPSHQVTQMGQEVILRCVPISNHLYFYWYRQILGQKVEFLVSFYNNEISEKSEIFDDQFSVERPDGSNFTLKIRSTKLEDSAMYFCASSEWGSTGELFFGEGSRLTVL

binding result [3]: recognises
B5: RAS TCR-28 (TCR, V domains shown)
Valpha: DQQVKQNSPSLSVQEGRISILNCDYTNSMFDYFLWYKKYPAEGPTFLISISSIKDKNEDGRFTVFLNKSAKHLSLHIVPSQPGDSAVYFCAASAVGQEYGNKLVFGAGTILRVKS
Vbeta: DTGVSQNPRHKITKRGQNVTFRCDPISEHNRLYWYRQTLGQGPEFLTYFQNEAQLEKSRLLSDRFSAERPKGSFSTLEIQRTEQGDSAMYLCASSEYTMGTQYFGPGTRLLVL

Second part, the binder before the results:

B1: GATA3 TCR-3 (TCR, V domains shown)
Valpha: AQSVSQHNHHVILSEAASLELGCNYSYGGTVNLFWYVQYPGQHLQLLLKYFSGDPLVKGIKGFEAEFIKSKFSFNLRKPSVQWSDTAEYFCAVISVTGNNRKLIWGLGTSLAVNP
Vbeta: DGGITQSPKYLFRKEGQNVTLSCEQNLNHDAMYWYRQDPGQGLRLIYYSQIVNDFQKGDIAEGYSVSREKKESFPLTVTSAQKNPTAFYLCASSRTAMNTEAFFGQGTRLTVV
binding result [1]: recognises

B4: RAS TCR-27 (TCR, V domains shown)
Valpha: ELKVEQNPLFLSMQEGKNYTIYCNYSTTSDRLYWYRQDPGKSLESLFVLLSNGAVKQEGRLMASLDTKARLSTLHITAAVHDLSATYFCAVDIIGGKSTFGDGTTLTVKP
Vbeta: EPEVTQTPSHQVTQMGQEVILRCVPISNHLYFYWYRQILGQKVEFLVSFYNNEISEKSEIFDDQFSVERPDGSNFTLKIRSTKLEDSAMYFCASSEWGSTGELFFGEGSRLTVL
binding result [3]: recognises

B6: BTK TCR-1 (TCR, V domains shown)
Valpha: QKEVEQNSGPLSVPEGAIASLNCTYSDRGSQSFFWYRQYSGKSPELIMFIYSNGDKEDGRFTAQLNKASQYVSLLIRDSQPSDSATYLCAVNDYGGSQGNLIFGKGTKLSVKP
Vbeta: DTGVSQNPRHKITKRGQNVTFRCDPISEHNRLYWYRQTLGQGPEFLTYFQNEAQLEKSRLLSDRFSAERPKGSFSTLEIQRTEQGDSAMYLCASSFGPDEKLFFGSGTQLSVL
binding result [4]: recognises

B7: BTK TCR-2 (TCR, V domains shown)
Valpha: QKEVEQNSGPLSVPEGAIASLNCTYSDRGSQSFFWYRQYSGKSPELIMFIYSNGDKEDGRFTAQLNKASQYVSLLIRDSQPSDSATYLCAVNEGDSSYKLIFGSGTRLLVRP
Vbeta: DSGVTQTPKHLITATGQRVTLRCSPRSGDLSVYWYQQSLDQGLQFLIQYYNGEERAKGNILERFSAQQFPDLHSELNLSSLELGDSALYFCASSPGANEKLFFGSGTQLSVL
binding result [4]: recognises

B8: TMPRSS2::ERG TCR-1 (TCR, V domains shown)
Valpha: AQKVTQAQTEISVVEKEDVTLDCVYETRDTTYYLFWYKQPPSGELVFLIRRNSFDEQNEISGRYSWNFQKSTSSFNFTITASQVVDSAVYFCALSEARVFNGANSKLTFGKGITLSVRP
Vbeta: EAGVTQFPSHSVIEKGQTVTLRCDPISGHDNLYWYRRVMGKEIKFLLHFVKESKQDESGMPNNRFLAERTGGTYSTLKVQPAELEDSGVYFCASSQADSPLHFGNGTRLTVT
binding result [5]: recognises
